± gives the standard deviation of the averaged measurements.
B1: library; a variant is named by its letters at N, in order (parent)
chain: GAGACCGCAACTGAAAAGTTGTGGNNNNNATAGTGAGTCGCTGCCTGCAAAGACACAACT

Variants of: B1
Test: ligation selection enrichment (abundance after / before one-round selection) (fold); higher = more template-directed ligation activity
Details: with T7Psub CACGGAUGCUAAUACGACUCACUAUA; MgCl2 25 mM; 42 °C; 4 h; pH 8.5
How it was run: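 RNA ligase library with five randomized core positions (0.75 μM, T7-transcribed) was reacted with RNA substrate (6 μM) in 50 mM EPPS pH 8.5, 25 mM MgCl2 at 42 °C for 4 h, in two independent experiments. Ligated products were PAGE-purified, reverse transcribed, barcoded by PCR and MiSeq-sequenced. Reads with quality score ≥30 at all randomized positions were counted. Enrichment was abundance after ligation divided by abundance before ligation.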

Variant	ligation selection enrichment
GAGACCGCAACTGAAAAGTTGTGGAGAACATAGTGAGTCGCTGCCTGCAAAGACACAACT	0.267 ± 0.06
GAGACCGCAACTGAAAAGTTGTGGAGAATATAGTGAGTCGCTGCCTGCAAAGACACAACT	3.78 ± 0.51
GAGACCGCAACTGAAAAGTTGTGGAGAAGATAGTGAGTCGCTGCCTGCAAAGACACAACT	0.4 ± 0.033
GAGACCGCAACTGAAAAGTTGTGGAGAAAATAGTGAGTCGCTGCCTGCAAAGACACAACT	0.306 ± 0.043
GAGACCGCAACTGAAAAGTTGTGGCCTTCATAGTGAGTCGCTGCCTGCAAAGACACAACT	0.171 ± 0.02
GAGACCGCAACTGAAAAGTTGTGGCCTTGATAGTGAGTCGCTGCCTGCAAAGACACAACT	0.874 ± 0.15
GAGACCGCAACTGAAAAGTTGTGGCCTTAATAGTGAGTCGCTGCCTGCAAAGACACAACT	0.159 ± 0.004
GAGACCGCAACTGAAAAGTTGTGGCCTTTATAGTGAGTCGCTGCCTGCAAAGACACAACT	0.455 ± 0.12
GAGACCGCAACTGAAAAGTTGTGGGCTTGATAGTGAGTCGCTGCCTGCAAAGACACAACT	0.955 ± 0.16
GAGACCGCAACTGAAAAGTTGTGGGCTTTATAGTGAGTCGCTGCCTGCAAAGACACAACT	0.4952 ± 0.0042
GAGACCGCAACTGAAAAGTTGTGGGCTTCATAGTGAGTCGCTGCCTGCAAAGACACAACT	0.176 ± 0.038
GAGACCGCAACTGAAAAGTTGTGGGCTTAATAGTGAGTCGCTGCCTGCAAAGACACAACT	0.21 ± 0.0056
GAGACCGCAACTGAAAAGTTGTGGCGAAAATAGTGAGTCGCTGCCTGCAAAGACACAACT	0.31 ± 0.015
GAGACCGCAACTGAAAAGTTGTGGCGAAGATAGTGAGTCGCTGCCTGCAAAGACACAACT	0.4199 ± 0.0032
GAGACCGCAACTGAAAAGTTGTGGCGAACATAGTGAGTCGCTGCCTGCAAAGACACAACT	0.246 ± 0.0029
GAGACCGCAACTGAAAAGTTGTGGTCTATATAGTGAGTCGCTGCCTGCAAAGACACAACT	0.102 ± 0.035
GAGACCGCAACTGAAAAGTTGTGGTCTAAATAGTGAGTCGCTGCCTGCAAAGACACAACT	0.0912 ± 0.0077
GAGACCGCAACTGAAAAGTTGTGGTCTAGATAGTGAGTCGCTGCCTGCAAAGACACAACT	0.285 ± 0.051
GAGACCGCAACTGAAAAGTTGTGGTCTACATAGTGAGTCGCTGCCTGCAAAGACACAACT	0.152 ± 0.03
GAGACCGCAACTGAAAAGTTGTGGTCGTGATAGTGAGTCGCTGCCTGCAAAGACACAACT	0.173 ± 0.047
GAGACCGCAACTGAAAAGTTGTGGTCGTCATAGTGAGTCGCTGCCTGCAAAGACACAACT	0.202 ± 0.02
GAGACCGCAACTGAAAAGTTGTGGTCGTTATAGTGAGTCGCTGCCTGCAAAGACACAACT	0.205 ± 0.12

Variant	ligation selection enrichment
GAGACCGCAACTGAAAAGTTGTGGGCTACATAGTGAGTCGCTGCCTGCAAAGACACAACT	0.15 ± 0.04
GAGACCGCAACTGAAAAGTTGTGGGCTAGATAGTGAGTCGCTGCCTGCAAAGACACAACT	0.375 ± 0.11
GAGACCGCAACTGAAAAGTTGTGGGCTAAATAGTGAGTCGCTGCCTGCAAAGACACAACT	0.176 ± 0.0063
GAGACCGCAACTGAAAAGTTGTGGGCTATATAGTGAGTCGCTGCCTGCAAAGACACAACT	0.196 ± 0.035
GAGACCGCAACTGAAAAGTTGTGGCCTGGATAGTGAGTCGCTGCCTGCAAAGACACAACT	0.381 ± 0.061
GAGACCGCAACTGAAAAGTTGTGGCCTGCATAGTGAGTCGCTGCCTGCAAAGACACAACT	0.128 ± 0.01
GAGACCGCAACTGAAAAGTTGTGGCCTGAATAGTGAGTCGCTGCCTGCAAAGACACAACT	0.26 ± 0.038
GAGACCGCAACTGAAAAGTTGTGGCCTGTATAGTGAGTCGCTGCCTGCAAAGACACAACT	0.138 ± 0.07
GAGACCGCAACTGAAAAGTTGTGGACTCTATAGTGAGTCGCTGCCTGCAAAGACACAACT	0.248 ± 0.12
GAGACCGCAACTGAAAAGTTGTGGACTCGATAGTGAGTCGCTGCCTGCAAAGACACAACT	0.535 ± 0.046
GAGACCGCAACTGAAAAGTTGTGGACTCCATAGTGAGTCGCTGCCTGCAAAGACACAACT	0.321 ± 0.011
GAGACCGCAACTGAAAAGTTGTGGACTCAATAGTGAGTCGCTGCCTGCAAAGACACAACT	0.217 ± 0.031
GAGACCGCAACTGAAAAGTTGTGGCCGTAATAGTGAGTCGCTGCCTGCAAAGACACAACT	0.213 ± 0.013
GAGACCGCAACTGAAAAGTTGTGGCCGTTATAGTGAGTCGCTGCCTGCAAAGACACAACT	0.149 ± 0.04
GAGACCGCAACTGAAAAGTTGTGGCCGTGATAGTGAGTCGCTGCCTGCAAAGACACAACT	0.111 ± 0.0037
GAGACCGCAACTGAAAAGTTGTGGCCGTCATAGTGAGTCGCTGCCTGCAAAGACACAACT	0.178 ± 0.022
GAGACCGCAACTGAAAAGTTGTGGGGAAAATAGTGAGTCGCTGCCTGCAAAGACACAACT	0.282 ± 0.011
GAGACCGCAACTGAAAAGTTGTGGGGAAGATAGTGAGTCGCTGCCTGCAAAGACACAACT	0.341 ± 0.011
GAGACCGCAACTGAAAAGTTGTGGGGAACATAGTGAGTCGCTGCCTGCAAAGACACAACT	0.226 ± 0.0027
GAGACCGCAACTGAAAAGTTGTGGTCTGTATAGTGAGTCGCTGCCTGCAAAGACACAACT	0.0815 ± 0.058
GAGACCGCAACTGAAAAGTTGTGGTCTGAATAGTGAGTCGCTGCCTGCAAAGACACAACT	0.256 ± 0.023
GAGACCGCAACTGAAAAGTTGTGGTCTGGATAGTGAGTCGCTGCCTGCAAAGACACAACT	0.417 ± 0.035

Source: the supplement of paper PMC10219994
